Measurements reported in patent publication US20230233707A1.

Molecular target: CD40 (UniProt P25942)
Assay: cell-based or functional assay

LOB7/6 (antibody)
EC50 from CD40 activation experiments (bioluminescent CD40 effector CHO cell assay): -1.47 log(µM)
